Laboratory results from paper PMC12215075, “Cryo-EM structures of the E. coli Ton and Tol motor complexes” (Nature Communications, 2025).

B1: E. coli ExbB (natural protein)
chain: MGNNLMQTDLSVWGMYQHADIVVKCVMIGLILASVVTWAIFFSKSVEFFNQKRRLKREQQLLAEARSLNQANDIAADFGSKSLSLHLLNEAQNELELSEGSDDNEGIKERTSFRLERRVAAVGRQMGRGNGYLATIGAISPFVGLFGTVWGIMNSFIGIAQTQTTNLAVVAPGIAEALLATAIGLVAAIPAVVIYNVFARQIGGFKAMLGDVAAQVLLLQSRDLDLEASAAAHPVRVAQKLRAG
notes: ExbB, E. coli; also called EcExbB; ExbBA

Experiments:
[1] = molecular target: the molecule itself; test: cryo-EM structure; TonB-ExbBD complex, co-expressed and co-purified, in amphipol PMAL-C12 (Tris 30 mM pH8.0 NaCl 170 mM EDTA 1 mM); 300 keV; consensus map 2.8 A and two further classes at 3.2 A
E. coli ExbB = molecular target: B1; test: as above; details: both partners purified
[2] = molecular target: the molecule itself; test: cryo-EM structure; TEV-digested TolATEVQR complex, co-expressed and co-purified, in LMNG (Hepes/NaOH 30 mM pH7.5 NaCl 150 mM EDTA 1 mM LMNG 0.002%), second SEC peak; 300 keV; two 3D classes (TolATEVQR-I 2.94 A, TolATEVQR-II 3.18 A)

Row | Binder | stoichiometry N [1] | further results
1 | E. coli ExbD with C-terminal TEV site and 10his-tag (natural protein, ExbD, E. coli; model built from Asp11 through the transmembrane helix (21-42), periplasmic domain not visible; No TEV digestion is described in the purification of TonB-ExbBD, so the tag was probably still on the chain; also called EcExbD; ExbDY) MAMHLNENLDDNGEMHDINVTPFIDVMLVLLIIFMVAAPLATVDVKVNLPASTSTPQPRPEKPVYLSVKADNSMFIGNDPVTDETMITALNALTEGKKDTTIFFRADKTVDYETLMKVMDTLHQAGYLKIGLVGEETAKAK | 2 | –
2 | E. coli TonB with C-terminal TEV site and streptag-II (natural protein, TonB, E. coli; only the transmembrane helix (residues 10 to 32) was built, the periplasmic domain is not visible; also called EcTonB; TonBF) MTLDLPRRFPWPTLLSVCIHGAVVAGLLYTSVHQVIELPAPAQPISVTMVTPADLEPPQAVQPPPEPVVEPEPEPEPIPEPPKEAPVVIEKPKPKPKPKPKPVKKVQEQPKRDVKPVESRPASPFENTAPARLTSSTATAATSKPVTSVASGPRALSRNQPQYPARAQALRIEGQVKVKFDVTPDGRVDNVQILSAKPANMFEREVKNAMRRWRYEPGKPGSGIVVNILFKINGTTEIQ | – | stoichiometry N (E. coli ExbB): 1 TonB per five ExbB
3 | E. coli TolQ (natural protein, UniProt P0ABU9 1-230, looked up, TolQ, E. coli; residues 2-225 built in the structure; also called EcTolQ; TolQA) MTDMNILDLFLKASLLVKLIMLILIGFSIASWAIIIQRTRILNAAAREAEAFEDKFWSGIELSRLYQESQGKRDNLTGSEQIFYSGFKEFVRLHRANSHAPEAVVEGASRAMRISMNRELENLETHIPFLGTVGSISPYIGLFGTVWGIMHAFIALGAVKQATLQMVAPGIAEALIATAIGLFAAIPAVMAYNRLNQRVNKLELNYDNFMEEFTAILHRQAFTVSESNKG | – | stoichiometry N [2]: 5
4 | B1 | 5 | –
